{"source": "patent US20030143209A1", "about": "(AVENTIS PHARMA S A, published 2003)", "biological_target": "T1, CAR (Coxsackie and adenoviruses receptor) (human, UniProt P78310 20-365)", "T1 sequence": "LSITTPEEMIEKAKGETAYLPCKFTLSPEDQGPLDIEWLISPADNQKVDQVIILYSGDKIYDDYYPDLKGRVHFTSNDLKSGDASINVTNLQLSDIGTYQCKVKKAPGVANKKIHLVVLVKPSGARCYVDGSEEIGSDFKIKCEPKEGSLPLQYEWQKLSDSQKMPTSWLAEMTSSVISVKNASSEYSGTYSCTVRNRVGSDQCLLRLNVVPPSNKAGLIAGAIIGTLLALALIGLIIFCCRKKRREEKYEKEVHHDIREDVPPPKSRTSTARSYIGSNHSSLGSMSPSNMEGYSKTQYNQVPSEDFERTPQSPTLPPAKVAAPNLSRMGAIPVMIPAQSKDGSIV", "assay": "cell-based or functional assay", "data": [{"binder": "vBS1: Ad5 virus with short-shafted fiber from Ad5 (deletion encompassing shaft repeats 4-16) (other) MKRARPSEDTFNPVYPYDTETGPPTVPFLTPPFVSPNGFQESPPGVLSLRLSEPLVTSNGMLALKMGNGLSLDEAGNLTSQNVTTVSPPLKKTKSNLDINYNKGLYLFTASNNSKKLEVNLSTAKGLMFDATAIAINAGDGLEFGSPNAPNTNPLKTKIGHGLEFDSNKAMVPKLGTGLSFDSTGAITVGNKNNDKLTLWTTPAPSPNCRLNAEKDAKLTLVLTKCGSQILATVSVLAVKGSLAPISGTVQSAHLIIRFDENGVLLNNSFLDPEYWNFRNGDLTEGTAYTNAVGFMPNLSAYPKSHGKTAKSNIVSQVYLNGDKTKPVTLTITLNGTQETGDTTPSAYSMSFSWDWSGHNYINEIFATSSYTFSYIAQE", "values": [{"measurement": "cell transduction of 293 cells (specific lacZ expression, moi 50 VP/cell)", "result": 10, "unit": "fold"}]}]}
